From PMC12416549 (2024)

B1: E83V (designed binder)
chain: SMEEEVEKAAKEYEKKKKEAIEKHLEKLKAKDKEAAERFLKELEEAAKEYAKDEAKTMSEEEAKRRAKKYKEKVLLSELSEEVQKEIKEAEEKLVRTILKYVEEAAK
B2: I21D (designed binder)
chain: SMEEEVEKAAKEYEKKKKEADEKHLEKLKAKDKEAAERFLKELEEAAKEYAKDEAKTMSEEEAKRRAKKYKEKVLLSELSEEEQKEIKEAEEKLVRTILKYVEEAAK
B3: A90F (designed binder)
chain: SMEEEVEKAAKEYEKKKKEAIEKHLEKLKAKDKEAAERFLKELEEAAKEYAKDEAKTMSEEEAKRRAKKYKEKVLLSELSEEEQKEIKEFEEKLVRTILKYVEEAAK
B4: E54L (designed binder)
chain: SMEEEVEKAAKEYEKKKKEAIEKHLEKLKAKDKEAAERFLKELEEAAKEYAKDLAKTMSEEEAKRRAKKYKEKVLLSELSEEEQKEIKEAEEKLVRTILKYVEEAAK
B5: K8Y (designed binder)
chain: SMEEEVEYAAKEYEKKKKEAIEKHLEKLKAKDKEAAERFLKELEEAAKEYAKDEAKTMSEEEAKRRAKKYKEKVLLSELSEEEQKEIKEAEEKLVRTILKYVEEAAK
B6: I87P (designed binder)
chain: SMEEEVEKAAKEYEKKKKEAIEKHLEKLKAKDKEAAERFLKELEEAAKEYAKDEAKTMSEEEAKRRAKKYKEKVLLSELSEEEQKEPKEAEEKLVRTILKYVEEAAK
B7: L25Y (designed binder)
chain: SMEEEVEKAAKEYEKKKKEAIEKHYEKLKAKDKEAAERFLKELEEAAKEYAKDEAKTMSEEEAKRRAKKYKEKVLLSELSEEEQKEIKEAEEKLVRTILKYVEEAAK
B8: E26G (designed binder)
chain: SMEEEVEKAAKEYEKKKKEAIEKHLGKLKAKDKEAAERFLKELEEAAKEYAKDEAKTMSEEEAKRRAKKYKEKVLLSELSEEEQKEIKEAEEKLVRTILKYVEEAAK
B9: K88A (designed binder)
chain: SMEEEVEKAAKEYEKKKKEAIEKHLEKLKAKDKEAAERFLKELEEAAKEYAKDEAKTMSEEEAKRRAKKYKEKVLLSELSEEEQKEIAEAEEKLVRTILKYVEEAAK
B10: Y50T (designed binder)
chain: SMEEEVEKAAKEYEKKKKEAIEKHLEKLKAKDKEAAERFLKELEEAAKETAKDEAKTMSEEEAKRRAKKYKEKVLLSELSEEEQKEIKEAEEKLVRTILKYVEEAAK
B11: E34K (designed binder)
chain: SMEEEVEKAAKEYEKKKKEAIEKHLEKLKAKDKKAAERFLKELEEAAKEYAKDEAKTMSEEEAKRRAKKYKEKVLLSELSEEEQKEIKEAEEKLVRTILKYVEEAAK
B12: E49S (designed binder)
chain: SMEEEVEKAAKEYEKKKKEAIEKHLEKLKAKDKEAAERFLKELEEAAKSYAKDEAKTMSEEEAKRRAKKYKEKVLLSELSEEEQKEIKEAEEKLVRTILKYVEEAAK
B13: K71L (designed binder)
chain: SMEEEVEKAAKEYEKKKKEAIEKHLEKLKAKDKEAAERFLKELEEAAKEYAKDEAKTMSEEEAKRRAKKYLEKVLLSELSEEEQKEIKEAEEKLVRTILKYVEEAAK
B14: L99K (designed binder)
chain: SMEEEVEKAAKEYEKKKKEAIEKHLEKLKAKDKEAAERFLKELEEAAKEYAKDEAKTMSEEEAKRRAKKYKEKVLLSELSEEEQKEIKEAEEKLVRTIKKYVEEAAK
B15: E19M (designed binder)
chain: SMEEEVEKAAKEYEKKKKMAIEKHLEKLKAKDKEAAERFLKELEEAAKEYAKDEAKTMSEEEAKRRAKKYKEKVLLSELSEEEQKEIKEAEEKLVRTILKYVEEAAK
B16: L28S (designed binder)
chain: SMEEEVEKAAKEYEKKKKEAIEKHLEKSKAKDKEAAERFLKELEEAAKEYAKDEAKTMSEEEAKRRAKKYKEKVLLSELSEEEQKEIKEAEEKLVRTILKYVEEAAK
B17: A51N (designed binder)
chain: SMEEEVEKAAKEYEKKKKEAIEKHLEKLKAKDKEAAERFLKELEEAAKEYNKDEAKTMSEEEAKRRAKKYKEKVLLSELSEEEQKEIKEAEEKLVRTILKYVEEAAK
B18: E26I (designed binder)
chain: SMEEEVEKAAKEYEKKKKEAIEKHLIKLKAKDKEAAERFLKELEEAAKEYAKDEAKTMSEEEAKRRAKKYKEKVLLSELSEEEQKEIKEAEEKLVRTILKYVEEAAK
B19: A63D (designed binder)
chain: SMEEEVEKAAKEYEKKKKEAIEKHLEKLKAKDKEAAERFLKELEEAAKEYAKDEAKTMSEEEDKRRAKKYKEKVLLSELSEEEQKEIKEAEEKLVRTILKYVEEAAK
B20: A20S (designed binder)
chain: SMEEEVEKAAKEYEKKKKESIEKHLEKLKAKDKEAAERFLKELEEAAKEYAKDEAKTMSEEEAKRRAKKYKEKVLLSELSEEEQKEIKEAEEKLVRTILKYVEEAAK
B21: V102D (designed binder)
chain: SMEEEVEKAAKEYEKKKKEAIEKHLEKLKAKDKEAAERFLKELEEAAKEYAKDEAKTMSEEEAKRRAKKYKEKVLLSELSEEEQKEIKEAEEKLVRTILKYDEEAAK
B22: I87T (designed binder)
chain: SMEEEVEKAAKEYEKKKKEAIEKHLEKLKAKDKEAAERFLKELEEAAKEYAKDEAKTMSEEEAKRRAKKYKEKVLLSELSEEEQKETKEAEEKLVRTILKYVEEAAK
B23: K69M (designed binder)
chain: SMEEEVEKAAKEYEKKKKEAIEKHLEKLKAKDKEAAERFLKELEEAAKEYAKDEAKTMSEEEAKRRAKMYKEKVLLSELSEEEQKEIKEAEEKLVRTILKYVEEAAK
B24: E12N (designed binder)
chain: SMEEEVEKAAKNYEKKKKEAIEKHLEKLKAKDKEAAERFLKELEEAAKEYAKDEAKTMSEEEAKRRAKKYKEKVLLSELSEEEQKEIKEAEEKLVRTILKYVEEAAK
B25: K69H (designed binder)
chain: SMEEEVEKAAKEYEKKKKEAIEKHLEKLKAKDKEAAERFLKELEEAAKEYAKDEAKTMSEEEAKRRAKHYKEKVLLSELSEEEQKEIKEAEEKLVRTILKYVEEAAK
B26: K27R (designed binder)
chain: SMEEEVEKAAKEYEKKKKEAIEKHLERLKAKDKEAAERFLKELEEAAKEYAKDEAKTMSEEEAKRRAKKYKEKVLLSELSEEEQKEIKEAEEKLVRTILKYVEEAAK
B27: E5F (designed binder)
chain: SMEEFVEKAAKEYEKKKKEAIEKHLEKLKAKDKEAAERFLKELEEAAKEYAKDEAKTMSEEEAKRRAKKYKEKVLLSELSEEEQKEIKEAEEKLVRTILKYVEEAAK
B28: A90D (designed binder)
chain: SMEEEVEKAAKEYEKKKKEAIEKHLEKLKAKDKEAAERFLKELEEAAKEYAKDEAKTMSEEEAKRRAKKYKEKVLLSELSEEEQKEIKEDEEKLVRTILKYVEEAAK
B29: Y101V (designed binder)
chain: SMEEEVEKAAKEYEKKKKEAIEKHLEKLKAKDKEAAERFLKELEEAAKEYAKDEAKTMSEEEAKRRAKKYKEKVLLSELSEEEQKEIKEAEEKLVRTILKVVEEAAK
B30: E78P (designed binder)
chain: SMEEEVEKAAKEYEKKKKEAIEKHLEKLKAKDKEAAERFLKELEEAAKEYAKDEAKTMSEEEAKRRAKKYKEKVLLSPLSEEEQKEIKEAEEKLVRTILKYVEEAAK
B31: E37F (designed binder)
chain: SMEEEVEKAAKEYEKKKKEAIEKHLEKLKAKDKEAAFRFLKELEEAAKEYAKDEAKTMSEEEAKRRAKKYKEKVLLSELSEEEQKEIKEAEEKLVRTILKYVEEAAK
B32: E54R (designed binder)
chain: SMEEEVEKAAKEYEKKKKEAIEKHLEKLKAKDKEAAERFLKELEEAAKEYAKDRAKTMSEEEAKRRAKKYKEKVLLSELSEEEQKEIKEAEEKLVRTILKYVEEAAK
B33: E89K (designed binder)
chain: SMEEEVEKAAKEYEKKKKEAIEKHLEKLKAKDKEAAERFLKELEEAAKEYAKDEAKTMSEEEAKRRAKKYKEKVLLSELSEEEQKEIKKAEEKLVRTILKYVEEAAK
B34: A30Q (designed binder)
chain: SMEEEVEKAAKEYEKKKKEAIEKHLEKLKQKDKEAAERFLKELEEAAKEYAKDEAKTMSEEEAKRRAKKYKEKVLLSELSEEEQKEIKEAEEKLVRTILKYVEEAAK
B35: A105I (designed binder)
chain: SMEEEVEKAAKEYEKKKKEAIEKHLEKLKAKDKEAAERFLKELEEAAKEYAKDEAKTMSEEEAKRRAKKYKEKVLLSELSEEEQKEIKEAEEKLVRTILKYVEEIAK

Target: T1, TNFR1 (Homo sapiens, UniProt P19438)
T1 chain: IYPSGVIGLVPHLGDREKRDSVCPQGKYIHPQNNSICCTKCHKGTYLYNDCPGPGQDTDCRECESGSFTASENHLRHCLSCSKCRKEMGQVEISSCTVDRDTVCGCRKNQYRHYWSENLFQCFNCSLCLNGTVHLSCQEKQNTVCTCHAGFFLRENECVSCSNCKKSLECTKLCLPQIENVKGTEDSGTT
Assay: yeast display SC50

Binder	apparent Kd (screen) [nM]
B1	0.446
B2	10.4
B3	0.49
B4	4.39
B5	0.956
B6	22.2
B7	0.446
B8	0.593
B9	0.405
B10	1.16
B11	0.539
B12	1.27
B13	0.653
B14	7.78
B15	0.446
B16	0.49
B17	12.5
B18	1.16

Binder	apparent Kd (screen) [nM]
B19	10.4
B20	0.446
B21	0.539
B22	12.5
B23	0.49
B24	1.16
B25	0.49
B26	0.869
B27	1.05
B28	0.446
B29	0.446
B30	2.73
B31	0.49
B32	18.3
B33	2.73
B34	0.593
B35	1.69
